Molecular target: the molecule itself
Assay: crystal structure; 3D crystals of purified GPR, 50 mM MES pH 6, 25 mM MnCl2, 30% PEG 400; anisotropic diffraction to 4.44 Å; molecular replacement with pentameric HOT75BPR (PDB 4KLY); no atomic model built

B1: green-light absorbing proteorhodopsin (GPR), untagged (natural protein, γ-proteobacterium)
chain: MAGGGDLDASDYTGVSFWLVTAALLASTVFFFVERDRVSAKWKTSLTVSGLVTGIAFWHYMYMRGVWIETGDSPTVFRYIDWLLTVPLLICEFYLILAAATNVAGSLFKKLLVGSLVMLVFGYMGEAGIMAAWPAFIIGCLAWVYMIYELWAGEGKSACNTASPAVQSAYNTMMYIIIFGWAIYPVGYFTGYLMGDGGSALNLNLIYNLADFVNKILFGLIIWNVAVKESSNA
modifications: all-trans retinal covalently linked via a Schiff base to a conserved lysine
notes: N-terminal methionine added to the construct; theoretical MW of the monomer 25.5 kDa; Stop codon placed before the HRV 3C site and decahistidine-tag of pZUDF21, so no tag on the protein; Pentamer by crystallography and cryo-EM; also called untagged GPR; tag-free GPR; source: E. coli BL21(DE3) Rosetta2 (pZUDF21stop); purified from Cymal-5 solubilized membranes (Q Sepharose IEC, Superdex 200 SEC); …
  stoichiometry N: 5

— paper PMC7337067, “Cryo-electron microscopic and X-ray crystallographic analysis of the light-driven proton pump proteorhodopsin reveals a pentameric assembly” (Journal of Structural Biology: X, 2020)
